From article PMC3919270
Blank lines part the entries; values can stand above or below the substance they belong to.

Assays:
Rab5 = Rab5 (UniProt P51148)
Rab1/Ypt1 = Rab1/Ypt1 (UniProt P01123)
Chain of UniProt P01123 (P01123 whole entry): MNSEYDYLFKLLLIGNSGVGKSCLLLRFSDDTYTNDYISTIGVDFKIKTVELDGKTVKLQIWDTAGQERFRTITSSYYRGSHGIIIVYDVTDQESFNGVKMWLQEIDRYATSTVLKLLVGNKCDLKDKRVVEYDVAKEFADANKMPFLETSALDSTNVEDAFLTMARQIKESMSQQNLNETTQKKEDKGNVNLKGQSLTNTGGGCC

Chain of UniProt P51148 (P51148 whole entry): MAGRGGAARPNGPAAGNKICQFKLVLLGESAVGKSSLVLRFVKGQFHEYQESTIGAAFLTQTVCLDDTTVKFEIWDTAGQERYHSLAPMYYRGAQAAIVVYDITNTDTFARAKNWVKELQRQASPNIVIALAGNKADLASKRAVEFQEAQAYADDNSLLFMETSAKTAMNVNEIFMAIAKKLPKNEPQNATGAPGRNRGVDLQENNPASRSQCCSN

catalytic efficiency (kcat/Km) of Rabex-mediated nucleotide exchange (release of Mant-GDP from Rab5) (Rab5): 25000 M⁻¹ s⁻¹
Substance: Rabex5 (enzyme)

GEF activity towards Rab1 (release of Mant-GDP), reduction against wild type TRAPP (Rab1/Ypt1): 4 fold
Substance: TRAPP Bet3 E192A/D193A mutant (from UniProt P36149 1-193) (complex)

catalytic efficiency (kcat/Km) of TRAPP-stimulated GDP-release from Rab1/Ypt1 (release of Mant-GDP) (Rab1/Ypt1): 130000 M⁻¹ s⁻¹
Substance: TRAPPI-complex (from UniProt P36149 1-193)
